Literature values in US20240216555A1, “TARGETING AND TREATMENT OF CANCEROUS CELLS USING RADIOLABELED GRP78-BINDING AGENTS” (University of Kentucky Research Foundation, priority 2022, published 2024).
Where no end group is shown, it is not given here.

Tests used:
csGRP78 [1] = molecular target: T1, csGRP78 (Homo sapiens, UniProt P11021); conditions: previously shown; cited from earlier work
csGRP78 [2] = molecular target: T1, csGRP78; conditions: previously shown; cited from earlier work; remark: listed apart in the source

T1 sequence (P11021 19-654): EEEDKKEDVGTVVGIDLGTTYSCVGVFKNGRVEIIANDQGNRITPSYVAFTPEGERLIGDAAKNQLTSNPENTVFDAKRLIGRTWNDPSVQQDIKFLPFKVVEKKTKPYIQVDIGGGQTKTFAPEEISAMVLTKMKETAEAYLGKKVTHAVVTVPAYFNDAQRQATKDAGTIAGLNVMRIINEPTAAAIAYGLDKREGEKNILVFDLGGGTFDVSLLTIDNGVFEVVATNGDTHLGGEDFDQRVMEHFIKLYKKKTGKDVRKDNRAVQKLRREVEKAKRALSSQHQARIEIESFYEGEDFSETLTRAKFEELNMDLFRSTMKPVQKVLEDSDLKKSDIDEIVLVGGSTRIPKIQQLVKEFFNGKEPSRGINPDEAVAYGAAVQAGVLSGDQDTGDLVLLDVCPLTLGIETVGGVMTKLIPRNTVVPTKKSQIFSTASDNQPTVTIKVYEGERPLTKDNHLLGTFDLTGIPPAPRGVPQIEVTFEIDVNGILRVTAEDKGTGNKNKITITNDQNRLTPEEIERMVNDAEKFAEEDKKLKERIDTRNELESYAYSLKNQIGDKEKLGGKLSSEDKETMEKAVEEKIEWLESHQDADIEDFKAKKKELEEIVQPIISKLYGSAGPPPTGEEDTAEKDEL

Sequence: CTVALPGGYVRVC (also: cyclic (type not given here))
- translocation to the ER (csGRP78 [1]): translocate to the ER
- binding to csGRP78 (csGRP78 [2]): bind to csGRP78
